± gives the uncertainty stated by the source.
Test system: HEK293T
Experiment: plasma membrane surface immunostaining intensity (anti-HA, deep receptor scanning) (arbitrary fluorescence units); higher = higher plasma membrane expression

## MEKWNHTSNDFILLGLLPPNQTGIFLLCLIILIFFLASVGNSAMIHLIHVDPRLHTPMYFLLSQLSLMDLMYISTTVPKMAYNFLSGQKGISFLGCGVQSFFFLTMACSEGLLLTSMAYDRYLAICHSLYYPIRMSKMMCVKMIGGSWTLGSINSLAHTVFALHIPYCRSRAIDHFFCDVPAMLLLACTDTWVYEYMVFVSTSLFLLFPFIGITSSCGRVLFAVYHMHSKEGRKKAFTTISTHLTVVIFYYAPFVYTYLRPRNLRSPAEDKILAVFYTILTPMLNPIIYSLRNKEVLGAMRRVFGIFSFLKE [OR2L13]
GPCR class: A (Olfactory)
  plasma membrane surface immunostaining intensity: 139 ± 4.1

## MTSGSVFFYILIFGKYFSHGGGQDVKCSLGYFPCGNITKCLPQLLHCNGVDDCGNQADEDNCGDNNGWSLQFDKYFASYYKMTSQYPFEAETPECLVGSVPVQCLCQGLELDCDETNLRAVPSVSSNVTAMSLQWNLIRKLPPDCFKNYHDLQKLYLQNNKITSISIYAFRGLNSLTKLYLSHNRITFLKPGVFEDLHRLEWLIIEDNHLSRISPPTFYGLNSLILLVLMNNVLTRLPDKPLCQHMPRLHWLDLEGNHIHNLRNLTFISCSNLTVLVMRKNKINHLNENTFAPLQKLDELDLGSNKIENLPPLIFKDLKELSQLNLSYNPIQKIQANQFDYLVKLKSLSLEGIEISNIQQRMFRPLMNLSHIYFKKFQYCGYAPHVRSCKPNTDGISSLENLLASIIQRVFVWVVSAVTCFGNIFVICMRPYIRSENKLYAMSIISLCCADCLMGIYLFVIGGFDLKFRGEYNKHAQLWMESTHCQLVGSLAILSTEVSVLLLTFLTLEKYICIVYPFRCVRPGKCRTITVLILIWITGFIVAFIPLSNKEFFKNYYGTNGVCFPLHSEDTESIGAQIYSVAIFLGINLAAFIIIVFSYGSMFYSVHQSAITATEIRNQVKKEMILAKRFFFIVFTDALCWIPIFVVKFLSLLQVEIPGTITSWVVIFILPINSALNPILYTLTTRPFKEMIHRFWYNYRQRKSMDSKGQKTYAPSFIWVEMWPLQEMPPELMKPDLFTYPCEMSLISQSTRLNSYS [RXFP1]
GPCR class: A
  plasma membrane surface immunostaining intensity: 165 ± 19

## MEGISIYTSDNYTEEMGSGDYDSMKEPCFREENANFNKIFLPTIYSIIFLTGIVGNGLVILVMGYQKKLRSMTDKYRLHLSVADLLFVITLPFWAVDAVANWYFGNFLCKAVHVIYTVNLYSSVLILAFISLDRYLAIVHATNSQRPRKLLAEKVVYVGVWIPALLLTIPDFIFANVSEADDRYICDRFYPNDLWVVVFQFQHIMVGLILPGIVILSCYCIIISKLSHSKGHQKRKALKTTVILILAFFACWLPYYIGISIDSFILLEIIKQGCEFENTVHKWISITEALAFFHCCLNPILYAFLGAKFKTSAQHALTSVSRGSSLKILSKGKRGGHSSVSTESESSSFHSS [CXCR4]
GPCR class: A
  plasma membrane surface immunostaining intensity: 814 ± 140

## MTEFHLQSQMPSIRLIFRRLSLGRIKPSQSPRCSTSFMVVPSFSIAEHWRRMKGANLSQGMEFELLGLTTDPQLQRLLFVVFLGMYTATLLGNLVMFLLIHVSATLHTPMYSLLKSLSFLDFCYSSTVVPQTLVNFLAKRKVISYFGCMTQMFFYAGFATSECYLIAAMAYDRYAAICNPLLYSTIMSPEVCASLIVGSYSAGFLNSLIHTGCIFSLKFCGAHVVTHFFCDGPPILSLSCVDTSLCEILLFIFAGFNLLSCTLTILISYFLILNTILKMSSAQGRFKAFSTCASHLTAICLFFGTTLFMYLRPRSSYSLTQDRTVAVIYTVVIPVLNPLMYSLRNKDVKKALIKVWGRKTME [OR5AU1]
GPCR class: A (Olfactory)
  plasma membrane surface immunostaining intensity: 419 ± 110

## MTNQTQMMEFLLVRFTENWVLLRLHALLFSLIYLTAVLMNLVIILLMILDHRLHMAMYFFLRHLSFLDLCLISATVPKSILNSVASTDSISFLGCVLQLFLVVLLAGSEIGILTAMSYDRYAAICCPLHCEAVMSRGLCVQLMALSWLNRGALGLLYTAGTFSLNFYGSDELHQFFCDVPALLKLTCSKEHAIISVSVAIGVCYAFSCLVCIVVSYVYIFSAVLRISQRQRQSKAFSNCVPHLIVVTVFLVTGAVAYLKPGSDAPSILDLLVSVFYSVAPPTLNPVIYCLKNKDIKSALSKVLWNVRSSGVMKR [OR14K1]
GPCR class: A (Olfactory)
  plasma membrane surface immunostaining intensity: 155 ± 35

## MQAALTAFFVLLFSLLSLLGIAANGFIVLVLGREWLRYGRLLPLDMILISLGASRFCLQLVGTVHNFYYSAQKVEYSGGLGRQFFHLHWHFLNSATFWFCSWLSVLFCVKIANITHSTFLWLKWRFPGWVPWLLLGSVLISFIITLLFFWVNYPVYQEFLIRKFSGNMTYKWNTRIETYYFPSLKLVIWSIPFSVFLVSIMLLINSLRRHTQRMQHNGHSLQDPSTQAHTRALKSLISFLILYALSFLSLIIDAAKFISMQNDFYWPWQIAVYLCISVHPFILIFSNLKLRSVFSQLLLLARGFWVA [TAS2R41]
GPCR class: Taste
  plasma membrane surface immunostaining intensity: 129 ± 20

From the supplement of paper PMC12458215
